For data set [1], the system named is GFP-pdt#5H (Example 1) [GFP: P42212].
In data set [2] the test system is GFP-pdt#10 [GFP: P42212].
Data set [3] deals with GFP-pdt#5G [GFP: P42212].
Data set [4] has as its system GFP-pdt#5D [GFP: P42212].
Data set [5] relates to GFP-pdt#4 (Example 1) [GFP: P42212].
The subject of data set [6] is GFP-pdt#5C [GFP: P42212].
Data set [7] relates to GFP-pdt#5E [GFP: P42212].
Data set [8] concerns GFP-pdt#S3 [GFP: P42212].
Data set [9] has as its system GFP-pdt#3 (Example 1) [GFP: P42212].
Data set [10] deals with GFP-pdt#7 [GFP: P42212].
Data set [11] relates to GFP-pdt#5 (Example 1) [GFP: P42212].
For data set [12], the system named is GFP-pdt#1 [GFP: P42212].
The test system of data set [13] is GFP-pdt#2 (Example 1) [GFP: P42212].
Data set [14] has as its system GFP-pdt#5F [GFP: P42212].
For data set [15], the system named is GFP-pdt#5B (Example 1) [GFP: P42212].
Data set [16] has as its system GFP-pdt#11 [GFP: P42212].
The subject of data set [17] is GFP-pdt#S1 [GFP: P42212].
Data set [18] concerns GFP-pdt#5A (Example 1) [GFP: P42212].
Data set [19] relates to GFP-pdt#8 [GFP: P42212].
For data set [20], the system named is GFP-pdt (GFP with C-terminal wild-type M. florum ssrA tag) [GFP: P42212].
Data set [21] concerns GFP-pdt#S2 [GFP: P42212].
The subject of data set [22] is GFP-pdt#9 [GFP: P42212].
The test system of data set [23] is GFP-pdt#6 (Example 1) [GFP: P42212].
Data set [24] deals with GFP-pdt#12 [GFP: P42212].
Data set [25] has as its system untagged GFP (GFPmut3b) [GFP: P42212].
In data set [26] the test system is GFP-pdt#13 [GFP: P42212].

This note sets out measurements from patent US20160016995A1.

Regarding Mesoplasma florum Lon protease (mf-Lon), the Fold Degradation (0 vs 50 ng/ml aTc) in [1] was 3.6 fold; in data set [2], 41.5 fold; in [3], 4.2 fold; in data set [4] it was 12 fold; in [5], 51 fold; in data set [6], 1.6 fold. For the same substance, the Fold Degradation (0 vs 50 ng/ml aTc) was determined as 7.2 fold in data set [7]; 38.7 fold in data set [8]; 61.8 fold in data set [9]; 31.7 fold in [10]; 48.7 fold in data set [11]; 24.6 fold in data set [12]. The Fold Degradation (0 vs 50 ng/ml aTc) in data set [13] stood at 51.8 fold; in data set [14] it was 4 fold; in data set [15], 2.6 fold; in data set [16], 17.7 fold; in data set [17], 39.4 fold; in data set [18] it was 5.4 fold. In addition, the Fold Degradation (0 vs 50 ng/ml aTc) came out at 48.4 fold in [19]; 20.7 fold in data set [20]; 44.9 fold in data set [21]; 17 fold in [22]; 55.4 fold in [23]; 31.6 fold in data set [24]. Besides, the Fold Degradation (0 vs 50 ng/ml aTc) came to 1.2 fold in data set [25] and 18.6 fold in data set [26]. The “GFP level after mf-Lon expression (Example 2)” value in [20] was “reduced to 3% of its initial levels”.

With “mf-Lon fused to the E. coli ssrA tag variant ec-AAV”, the “GFP-pdt#3 (Example 2 name) degradation across ATc levels” value in data set [11] is “resulting in reduced GFP-pdt#3 degradation throughout the range of ATc levels tested”.
